Results taken from the nanobody polyreactivity screen of Harvey et al. (2022).

Experiment: yeast display, Sf9 membrane polyspecificity reagent, FACS + sequencing; frameworks hold sequencing errors
Procedure, shortened: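 Nanobodies came from a synthetic yeast display library in Saccharomyces cerevisiae BJ5465, induced with galactose for 36–48 hours and stained for 1 hour at 4 °C with 10% biotinylated, detergent-solubilized Sf9 membrane reagent. Cells were enriched on streptavidin microbeads and then FACS-sorted, with low and high (top ~1%) gates set on anti-HA fluorescence for expression and streptavidin fluorescence for reagent binding. Each polyreactivity label reflects the gate a clone came from. Genes were amplified by colony PCR, sequenced by MiSeq 2 × 250 and filtered by CDR length.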

## QVQLVESGAGLVQAGGSLRLSWAASGRIFTGNGMGWYRQAPGKEMELVAGIRNGGGRTYYADSVKGRFTISRDNAKNTVYLKMNSLKPEDTAVYYCAVRIYVRNSPGERLDKYDYWGQGTQVTVSS
  polyreactivity (PSR sort gate): high polyreactivity

## QVQLVESGGGLVQAGGSLRLSCAASGRTFWYYAMGWYRQAPGKERELVATISYRGGSTYYADSVKGRFTISRDNAKNTVYLQMNSLKPEDTAVYYCAAKQWWGGRPKVDYWGQGTQVTVSS
  polyreactivity (PSR sort gate): high polyreactivity

## QVQLVESGGGLVQAGGSLRLSCAASGRIFGTYAMGWYRQAPGKERELVATISYSSGRTYYADSVKGRFTISRDNAKNTVYFQMNSLKPEDTAVYYCARRRRSGSRQYYYWGQGTQVTVSS
  polyreactivity (PSR sort gate): high polyreactivity

## QVQLVESGGGLVQAGGSLRLSCAASGRIFQSNAMGLYRQAPGKERELVAAISYSGGGSTYYADSVNGRFTISRDNAKNTVYLQMNSLKPEDTAVYYCAARRVGGCFYTWRNPAYEYWGQGTQVTVSS
  polyreactivity (PSR sort gate): high polyreactivity

## QVQLVESGGGLVQAGGSLRLSCAASGSIFYGNAMGWYRQAPGKERELVASITYSGGTTNYADSVKGRFTISRDNAKNTVYLQMNCLKPEDTAVYYCNADIYPDRYGSTNYDFNYWGQGTQVTVSS
  polyreactivity (PSR sort gate): low polyreactivity

## QVQLVESGGGLVQAGGSLRLICAASGYTFTGYAMGWYRQAPGKEREFVAGITWRTGRTYYADSVNGRFTISRDNAKNTVYLQMNSLKPEDTAVYYCAAVPWKRYDYYTPFARGYWGQGTQVTVSS
  polyreactivity (PSR sort gate): low polyreactivity

## QVQLVESGGGLVQAGGSLRLSCAASGFIFYRNAMGWYRQAPGKERELVAAISQRGGRTYADSVKGRFTISRDNAKNTVYLQMNSLIPEDTAVYYCAADYLDSTYGYVYGWDDYWGQGTQVTVSS
  polyreactivity (PSR sort gate): low polyreactivity

## QVQLVESGGGLVPAGGSLRLSCAASGNIYRYYVMGWYRQAPGKEREFVAAITSSGGSTYYADSVKGRFTISRDNAKNTVYLQMNSLKPEDTAVYYCAKDYWDPGWAEYDDWGQGTQVTVSS
  polyreactivity (PSR sort gate): low polyreactivity

## QVQLVESGGGLVQAGGSLRLSCAASGFIFYGYTMGWYRQAPGKERELVARISRRGGSTYYADSVKGRFTISRDNAKNTVYLQMNSLKPEDTAVYYCAAELRRLFYAYGYWGQGTQVTVSS
  polyreactivity (PSR sort gate): low polyreactivity

## QVQLVESGGGLVQAGGSLRLSCAASGRIFSYNAMGWYRQAPGKERELVAAISSDGSTYYADSVKGRFTISRDNAKNTVYLQMNSLKPEDTAVYYCNADPGLYDVLYSSGDFDYWGQGTQVTVSS
  polyreactivity (PSR sort gate): low polyreactivity

## QVQLVESGGGLVQAGGSLRLSCAASGRIFSAYVMGWYRQAPGKERELVAAISSGGSRTSYADSVKGRVTISRDNAKNTVYLQMISLKPEDTAVYYCAASATFWGQGTQVNVSS
  polyreactivity (PSR sort gate): high polyreactivity

## QVQLVESGGGLVQAGGRLRLSCAASGSIMDTNAMGWYRQAPGKERELVARIDIDGSTNYADSVKGRFTISRDNAKKTVYLQMNSLKPEDTAVYYCNKDHSSYGASGYDYWGQGTQVTVSS
  polyreactivity (PSR sort gate): low polyreactivity

## QVQLVESGGGLVQAGGSLRLSCAASGRNFEIYAMGWYRQAPGKERELVAAISWRGVSTYYADSVKGRFTISRDNAKNTVYLQMNSLKPEDTAVYYCNKDVDYFWYVEYDYWGQGTQVTVSS
  polyreactivity (PSR sort gate): low polyreactivity

## QVQLVESGGGLVQAGGSLRLSCAASGSTFYPYDMGLYRQAPGKERELVATITSTGGSTNYADSVKGRFTISRDNAQNTVYLQMNSLKPEDTAVYYCAKDWNDDQHSWDTPFDYWGQGTHVTVSS
  polyreactivity (PSR sort gate): low polyreactivity

## QVQLVESGGCLVQAGGSLRLSSAASGFIFYYNAMGWYRQEPGKESELVATIRGSGGSTYYADSVKGRFTISRDNAKNTVYLQMNSLKPEDTAVYYCAASVQYRRLKKFYYWGQGTQVTVSS
  polyreactivity (PSR sort gate): high polyreactivity

## HVQLVESGGGLVQAGGSLRLSCAASGSIFVSYGMGWYRQAPGKEWELVASISNSAGSTYYADSVKGRFTISRDNAQNTVYLQMNSLKPDDTAVYSCAADYWVWAYGGYDAYNYWGQGTQVTVSS
  polyreactivity (PSR sort gate): high polyreactivity

## QVQLVESGGGLVQAGGSLRLSCAASGSTFTIYAIGWSRQAPGKERELVAGITRVGSTNYADSVKGRFTISRDNAKNTVYLQMNSLKPEDTAVYYCARRDLFQAGYEYWGQGTQVTVSS
  polyreactivity (PSR sort gate): low polyreactivity

## QVQLVESGGGLVQAGGSLRLSCAASGSTFGYYTMGWYRQAPGKERELVAAISRSGGRTYYADSVKGRFTISRDNAKNAVYLQMNSLKPEDTAVYYCNADGTRYAGDDYWGQGTQVTVSS
  polyreactivity (PSR sort gate): high polyreactivity

## QVQLVESGGGLVQAGGSLRLSCAASGFIFRSYAMGWYRQAPGKERELVAVISRRGVNTHYADSVKGRFTISRDNAKNTVNLQMNSLKPEDTAVYYCAKGLTALGDYWGQGTQVTVSS
  polyreactivity (PSR sort gate): high polyreactivity

## QVQLVESGGGLVQAGCSLRLSCAASGFIFYWYAMVWKRQAPGKERELVAAISYDTGSTYYADSVKGRFTISRDKAKNSVYLPMNSLKPEDTAVYYCAADVYYKYYYWGQGSQVTVSS
  polyreactivity (PSR sort gate): high polyreactivity

## QVQLVESGGGLVQAGGSLRLSCAASGRTFWYYTMGWYRQAPGKERELVAAISSGGTTNYADSVKGRFTISRDNAKNTVYLQMNSLKPEDTAVYYCAAEANSGDGYYWGQGTQVTVSS
  polyreactivity (PSR sort gate): high polyreactivity

## QVQLVESWGGLVQAGCSLRLSCAPSGSIFRTNAMGWYREAPGKQRELLAAITGSGGSTNYADSVKGRFTISRDNAKNTVYLQMNSLKPEDTADYYCAAEFGSLLSPYNYYYWGQGTQVTVSS
  polyreactivity (PSR sort gate): low polyreactivity

## QVQLVESGGGLVQAGGSLRLSCAASGFIFNHNAMGWYRQAPGKERELVAAISSGGRTYYADSVKGRFTISRDNAKNTVYLQMNSLKPEDTAVYYCAKDTKYSSQYGKYGYWGQGTQVTVSS
  polyreactivity (PSR sort gate): low polyreactivity

## QVQLVESGGGLVQAGGSLRLSCAASGRTFSSNAMGWYRPAPGKEREMVAAITRRSGSTYYADSVKGRFTISRDNAKNTVYLQMNSLKPEDTAVYYCNADIDSYREMDYWGQGTQVTVSS
  polyreactivity (PSR sort gate): low polyreactivity

## QVQLVESGGCLVQAGGSLRLSCAASGHIFTFYAMGWYRQAPGKERELVATIRWSGGSTYYADSVKGRFTISRDNAKNTVYLQMNSLKPEDTAVYYCAATYYPSSYVQRLDYWGQGTQVTVSS
  polyreactivity (PSR sort gate): low polyreactivity

## QVQLVESGGGLVQAGGSLRLSCAASGGTFSWYAMGWYRQAPGKERELVAAITARGGSTYYADSVKGRFTISRDNAKNTVYLQMNSLKPEDTAVYYCNKRTRSLVRYNSGGYSVGYWGQCTQVTVSS
  polyreactivity (PSR sort gate): high polyreactivity

## QVQLVESGGGLVQAGGSLRLSCAASGFIFFFYAMGWYRQAPGKERELVASISWNGGSTYYADSVKGRFTISRDNAKNTVYLQMNSLKPEYTAVYYCAVYSFRERVKAYRIYDYWGQGTHVTVSS
  polyreactivity (PSR sort gate): low polyreactivity

## QVQLVESGGGLVQAGGSLRLSCAASGSTFLRYAMGWYRQAPGTERELVAALSYSGGSTYYADSVKGRFTISRDTAKKTVSLQMNSLKPEDTAVYYCNAGVFANDNGGRLDQFTWEYEYWGQGTQVTVSS
  polyreactivity (PSR sort gate): low polyreactivity

## QVQLEESGGGLVQAGGSLRISCAASGRTFRRYAMGWYRQAPGKERELVATISRGGSTYYADSVKGRFTISRDNAKNTVYLQMNSLKPEDTAVFYCAAQRQVIYASEENYWGQGTQVTVSS
  polyreactivity (PSR sort gate): high polyreactivity

## QVQLVESGGGLVQAGGSLRLSCASSGFTFRLNAMGWYRQAPGKERELVAAITRSGGNTYYADSVKGRFTISRDNAKNTVYLQMNSLKPEDTAVYYCAVRQLDRRSPKYNYWGQGTQVTVSS
  polyreactivity (PSR sort gate): high polyreactivity

## QVQLVESGGGLVQAGGSLRLSCAASGGTFAGYAMGWYRQAPGKERELVAAITYRSSTTYYADSVKGRFTISRDNANNTVYLQMNSLKPEDTAVYYCAARTRGTGRNRDYWGQGTQVTVSS
  polyreactivity (PSR sort gate): high polyreactivity
